Publication PMC5218472 (PLoS Biology, 2017)

Test system: ADAM17
Assay: PMA-induced ADAM17-mediated IL-6R ectodomain shedding in transiently transfected HEK293 cells, sIL-6R ELISA
Format: cell-based, human
Settings: for increase of sIL-6R after PMA (unstimulated = 1), mean: 100 nM PMA 2 h vs DMSO
Description: Fig 4 Mutation of Val-356 is sufficient to block proteolysis of the IL-6R and the Asp358Ala variant. (A) Amino-acid residues from Asp-340 to Ala-370 of the human IL-6R. The identified cleavage site between Pro-355 (P1) and Val-356 (P1′) is indicated. (B) Overview of the six different IL-6R cleavage site mutants. Mutations are colored in either green or blue; the amino-acid residues of the wild-type cleavage site are shown in red. (C) HEK293 cells were transiently transfected with expression plasmids encoding the wild-type IL-6R (PV) or the double mutants (IE, DG) as indicated. Cells were either treated with 100 nM PMA for 2 h or DMSO as vehicle control. sIL-6R was precipitated from the supernatant with concanavalin A-covered sepharose beads, and the cells were lysed. Both were analyzed via western blot, and β-actin served as the loading control. One out of three experiments with similar outcomes is shown. (D, E) The experiment was performed as described under (C), but sIL-6R generation was analyzed via ELISA. In (D), the amount of sIL-6R generated after PMA stimulation of the wild-type IL-6R (PV) was set to 100%, and all other values were calculated accordingly. In (E), the amount of sIL-6R without stimulation was considered as constitutive shedding and set to 1, and the increase of sIL-6R was calculated. Data shown are the mean ± SD from at least three independent experiments (*p < 0.05, ns = no significant difference). (F–H) HEK293 cells were transiently transfected with expression plasmids encoding the wild-type IL-6R (PV) or the single mutants (DV, IV, PE, PG) as indicated. The experiments were performed as described in (C) to (E). (I) Overview of the four different IL-6R cleavage site mutants of the IL-6R Asp358Ala variant. Mutations are colored in either green or blue, the amino-acid residues of the wild-type cleavage site are shown in red, and the Asp358Ala single nucleotide polymorphism (SNP) is colored in orange. (J) ADAM17-mediated proteolysis of the IL-6R variants depicted in (I) were analyzed as described in (D). (K–M) Equal numbers of Ba/F3-gp130 cells were incubated for 48 h with increasing amounts (0–100 ng/ml) of either IL-6 or Hyper-IL-6. The stably transduced IL-6R variant is indicated above the diagram. One representative experiment out of three performed is shown (mean ± SD, biological triplicates).
Analysis of IL-6R ectodomain shedding in transiently transfected HEK293 cells or stably transduced Ba/F3-gp130 cell lines by ADAM10 and ADAM17 has been described elsewhere. Analysis of IL-6R proteolysis by CG has been described previously.
The sandwich ELISA, which detects sIL-6R as well as ds-sIL-6R (4-11/Baf227 antibodies) and can be used to quantify total sIL-6R serum levels, was described previously. To specifically detect ds-sIL-6R (either recombinant or in human serum), a similar approach was used (ds6R/Baf227). Both sandwich ELISAs were performed with streptavidin-horseradish peroxidase (R&D Systems, Minneapolis, Minnesota, US) and the peroxidase substrate BM blue POD (Roche, Mannheim, Germany). The enzymatic reaction was stopped by addition of 1.8 M sulfuric acid, and the absorbance read at 450 nm on a Tecan rainbow reader (Tecan, Crailsheim, Germany).

B1: PV: wild-type human IL-6R, cleavage site Pro-355/Val-356 (protein)
chain: LAPRRCPAQEVARGVLTSLPGDSVTLTCPGVEPEDNATVHWVLRKPAAGSHPSRWAGMGRRLLLRSVQLHDSGNYSCYRAGRPAGTVHLLVDVPPEEPQLSCFRKSPLSNVVCEWGPRSTPSLTTKAVLLVRKFQNSPAEDFQEPCQYSQESQKFSCQLAVPEGDSSFYIVSMCVASSVGSKFSKTQTFQGCGILQPDPPANITVTAVARNPRWLSVTWQDPHSWNSSFYRLRFELRYRAERSKTFTTWMVKDLQHHCVIHDAWSGLRHVVQLRAQEEFGQGEWSEWSPEAMGTPWTESRSPPAENEVSTPMQALTTNKDDDNILFRDSANATSLPVQDSSSVPLPTFLVAGGSLAFGTLLCIAIVLRFKKTWKLRALKEGKTSMHPPYSLGQLVPERPRPTPVLVPLISPPVSPSSLGSDNTSSHNRPDARDPRSPYDISNTDYFFPR
modifications: N-linked glycans at Asn-55, Asn-93, Asn-221, Asn-245 and Asn-350, O-linked glycan at Thr-352 (mapped on sIL-6R shed from transfected HEK293 cells)
100 nM PMA 2 h, HEK293, ELISA, mean ± SD
  increase in sIL-6R generation compared to vehicle-treated cells: 3.6 ± 1.9 fold
Fig 4D, 100 nM PMA, 2 h, mean of at least 3 independent experiments
  sIL-6R in supernatant (PMA-stimulated PV = 100%), mean: 100%
Fig 4D, DMSO vehicle, 2 h (constitutive shedding), mean of at least 3 independent experiments
  sIL-6R in supernatant (PMA-stimulated PV = 100%), mean: 34.05%
Fig 4E, mean
  increase of sIL-6R after PMA (unstimulated = 1), mean: 3.59 fold
Fig 4G, 100 nM PMA, 2 h, mean of 3
  sIL-6R in supernatant (PMA-stimulated PV = 100%), mean: 100%
Fig 4G, DMSO, 2 h, mean of 3
  sIL-6R in supernatant (PMA-stimulated PV = 100%), mean: 36.7867%
Fig 4H, mean of 3
  increase of sIL-6R after PMA (unstimulated = 1), mean: 2.73 fold
